assay: yeast display, Sf9 membrane polyspecificity reagent, FACS + sequencing; frameworks hold sequencing errors
Method in brief: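 Polyreactivity labels are assigned by the sorting gate from which each nanobody was recovered. The gates were low and high (top ~1%), set on anti-HA fluorescence for expression and streptavidin fluorescence for reagent binding. Before sorting, galactose-induced (36–48 hours) yeast display cells were stained for 1 hour at 4 °C with 10% biotinylated, detergent-solubilized Sf9 membrane reagent.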

Sequence | polyreactivity (PSR sort gate)
QVQLLESGGGLVQAGGSLRLTCAASGRIFAYYAMAWYRQAPGKERELVAAITSGGSTYYADSVKGRFTISRDNAKNTVYLQMNILKPEDTAVYYCNAGYGQWSRGHWRLSSVPYYYWGQGTQVTVSS | high polyreactivity
QVQLLESGGGLVQAGGSLRLTCAASGSIFFYYAMAWYRQAPGKEMEFVAGITYSGGITYYADSVKGRFTISRDNEKNTVYLQMNSLKPEDTAVYYCDYGGGVYQYGYWGQGTLVTVSS | low polyreactivity
QVQLLESGGGLVQAGGSLRLTCAASGSIFVIYAMGWYRQAPGKVRELVAAIDSSDGSTYYADSVKGRFTISRDNAKNTVYLQMNSLKPEDTAVYYCAARRLYWGQGTQVTVSS | high polyreactivity
QVQLLESGGGLVQAGGSLRLTSPASVRISQIYAMGWYIQAPGTERVLVARITSTDSTYYADSVKGRFTISRDNAKNTVYLQMNSLKPEDTAVYYCAASWWSPYDYWGQGTQVTVSS | low polyreactivity
QVQLLESGGGLVQAGGSLSLSCMASGSILGDRMSWYRQAPGKEHELVATIYDGGITYYADSMKGRFTISRDNAKNTVYLQMNSLRPEDTAVYYCGASFEGYRYHVYCGQGTQVTVSS | low polyreactivity
QVQLLESGGGLVQAGRSLRLSCAASGNTFDEYVKGWYRQAPGKESELDASIDWSGGGTYYADSVKGRFTISRDNAKNTVYLQMNSLKPEDTAVFYCNADYFDYSRTRYDYWGQGTQVNVSS | low polyreactivity
QVQLLESGGGLVQAGRSLRLSCAASGRIFRYYAMGWYRQAPGKERELVAAISYSTGGTSTYADSVKGRFTISRDNAKTTVYLQMNSLKPEDTAVYYCAVRRQYRRAYSFSQSRYDYWGQGTQVTVSS | high polyreactivity
QVQLLESGGGLVQPGGILRLSCAASGSTFVRYAMGWYRQAPGKERELVAAISYRGGSTYYADSVKGLFTISRDNANNSVYLELYSLKPEDTAVYYCAAESRHVEGEYWGQGTQVTVSS | high polyreactivity
QVQLLESGGGLVQPGGSLRLSCAASGSIFDGYAMVWYRQAPGKERELVAAISSSGGSTYYADSVKGRYTISRDTAKNTVYLQMNSLQREDSAVYYCAARFPWRGGVKYSYYFQHDYWGQGTQVTVSS | high polyreactivity
QVQLLESGGGLVQSGGSLRLTCAASGFTFRGYAMGWYRQAPGKERELVAAISWNGGRTYADSVKGRFTITRDNAKYTVYLQMNSLKPEDTAVYYCNAVKFGATAYDYWGQGTQVTVSS | high polyreactivity
QVQLLESGGRLVQAGRSLRLSCAASGRTFGPYAMGWYRQAPGKEREFVAAISSRGGRTYYADSVKGRFTISRDNAKNTVYLQLNSLKPEDTAVYYCAAEYNYSNKYLYLFLQMDYWGQGSQVTVSS | low polyreactivity
QVQLLESGVGLVQAGGSLRLSCAASGFSFGAYTLGWYRQAPRKERELVAAIRGSGGSTYYADSVKGRFTISRDNAKNTVYFQINSLKPDDTAVYYCAKTLTYGFRRYDYWGQGTQVTVSS | high polyreactivity
QVQLLESGVGLVQAGGSLRLSCAASGSILYINALGWSRPAPGKARELVAAITYSGGSTYYADSVKGRFTISRDNAKKPVYLQMNSLKPEDTAVYYCAADAVVAGRYDGHAYWGQGTQVTVSS | low polyreactivity
QVQLLESGVGLVQEGGSLRLSCPASGRIFGSKAMGWYRQAPGKERELVAAITRGGSTNYADSVEGRFTISRDNAKNTVYLQMNSLKPEYTAVYYCAVRWYRKYNYWGQGTLVTVSS | high polyreactivity
QVQLLESRGGLVQAGGSLRLSCAASGRNFGRYTMGWYRQAPGKERELVAAISARGGSTYYADSVKGRFTISRDNAKNTVYLQMNSLKPEDTAVYYCNTVRVHGFPIDRIYDYWGQGTQVTVSS | high polyreactivity
QVQLLETGGGLVQAGGSLRLSCAASGNTIIRYAMGWYRQAPGTERELVAAISYSGGRSYYADSVKGRFTISRDNAKYTVYLLMNSLKPEDTEVYYCIAASRYGGDYWGQVTQVTVSS | low polyreactivity
QVQLPESGGGLVQAGGSLRLICAASGYISTFSSEMGWYRQAPGKERELVASIAPGCTTSYADSVKGRFTISRDNAKNTVYLQMNSLKPEDTAVYYCGVDYTVPASFGYWGQGTQVTVSS | high polyreactivity

— the nanobody polyreactivity screen of Harvey et al. (2022)
